Assay results reported in publication PMC8798045.

Experiments:
[1] = target: Microtubules polymerized from bovine brain tubulin (bovine) (UniProt Q6B856); assay: single-molecule TIRF microscopy (dwell times); 5 nM 647-SSNA1 (100% labeled) alone on surface-bound GMPCPP-stabilized microtubule seeds; 0-5 min after SSNA1 addition; 5 fps; 35°C
[2] = target: Microtubules polymerized from bovine brain tubulin (bovine) (UniProt Q6B856); assay: TIRF microscopy; dynamic microtubules grown from GMPCPP seeds with 9 µM tubulin and 5 µM 488-SSNA1 (7% labeled), imaged 60 min; SSNA1 intensity at the microtubule end region; 35°C
[3] = target: Microtubules polymerized from bovine brain tubulin (bovine) (UniProt Q6B856); assay: single-molecule TIRF microscopy (dwell times); 5 nM 647-SSNA1 (100% labeled) alone on surface-bound GMPCPP-stabilized microtubule seeds; 5-10 min after SSNA1 addition; 5 fps; 35°C
[4] = target: Microtubules polymerized from bovine brain tubulin (bovine) (UniProt Q6B856); assay: single-molecule TIRF microscopy (dwell times); spiking: 5 nM 647-SSNA1 with 1 µM 488-SSNA1 on surface-bound GMPCPP-stabilized microtubule seeds; 0-5 min after SSNA1 addition; 5 fps; 35°C
[5] = target: Microtubules polymerized from bovine brain tubulin (bovine) (UniProt Q6B856); assay: single-molecule TIRF microscopy (dwell times); spiking: 5 nM 647-SSNA1 with 1 µM 488-SSNA1 on surface-bound GMPCPP-stabilized microtubule seeds; 5-10 min after SSNA1 addition; 5 fps; 35°C

mean single-molecule dwell time [1]: 12 s
SSNA1 fluorescence intensity at the microtubule end region, 3 min [2]: 0.33 a.u.
mean single-molecule dwell time [3]: 10 s
association rate (events µm^–1 nM^–1 s^–1) [4]: 0.00096
mean single-molecule dwell time [4]: 19 s
association rate (events µm^–1 nM^–1 s^–1) [5]: 0.0024
mean single-molecule dwell time [5]: 39 s
Substance: Human 6His-SSNA1 (Sjögren's syndrome nuclear autoantigen-1) (from UniProt O43805 1-119) (natural protein)
